Results on 1 substance are retold here after publication doi:10.1101/2022.02.24.481826v2.

The test system of series [1] is O=P(O)(O)OP(=O)(O)OP(=O)(O)OC[C@H]1O[C@@H](n2cnc3c(O)ncnc32)[C@H](O)[C@@H]1O. Briefly: EnzChek pyrophosphate release assay, Michaelis-Menten fit. The settings on record: ITP to IMP. It is filed as biochemical, Arabidopsis thaliana.
Series [2] concerns O=c1[nH]cnc2c1ncn2[C@H]1C[C@H](O)[C@@H](COP(=O)(O)OP(=O)(O)OP(=O)(O)O)O1. The description is as above. The series is classed as biochemical, Arabidopsis thaliana. The note with it: dITP to dIMP.

ITPA (Arabidopsis thaliana): in series [1], the Michaelis-Menten constant (Km) was 7.1 ± 1.2 µM and the turnover number (kcat) worked out at 1.9 ± 0.25 s⁻¹. In series [2], the Km is 1.7 ± 0.3 µM and the kcat stood at 1.5 ± 0.17 s⁻¹.

The term Km denotes the concentration of substrate that gives half-maximal velocity. In general, kcat refers to the number of substrate molecules converted per active site and unit of time at saturation.
